B1: KB_A07_ProTx-III 2M Gly (antibody, V domains shown)
VH: EVQLVESGGGLVRPGGSLRLSCAASGFTFSSYAMSWVRQAPGKGLEWVSAISGSGGSTYYADSVKGRFTISRDNTKNSLYLQMTSLRADDTAFYYCVKDFGPGYGTGWFDYWGPGTLVTVSS
VL: […]
B2: KB_A12_ProTx-III 2M Gly (antibody, V domains shown)
VH: B1 VH
VL: VNWYQQLPGKAPKLLIYAAGRGCLKFGWKCNPRNDKCCSGLKCGSNHNWCKWHIGANSGVSDRFSAAKSGTSASLAINGLRSEDEADYYCAAWDDSLNGYVFGTGTKLTVLG
B3: KB_A12_ProTx-III 2M 2Gly (antibody, V domains shown)
VH: B1 VH
VL: VNWYQQLPGKAPKLLIYAAGRGCLKFGWKCNPRNDKCCSGLKCGSNHNWCKWHIGGANSGVSDRFSAAKSGTSASLAINGLRSEDEADYYCAAWDDSLNGYVFGTGTKLTVLG
B4: KB_A07 Shk (antibody, V domains shown)
VH: B1 VH
VL: NWYQQKPGKAPKLLIYAAGVRSCIDTIPKSRCTAFQCKHSMKYRLSFCRKTCGTCSRSGVPSRFSGSGSGTDFTLTISSLQPEDFATYYCQQGASPPYTFGQGTKVEIKR
B5: KB_A07 Kaliotoxin (antibody, V domains shown)
VH: B1 VH
VL: DIQMTQSPSSLSASVGDRVTITCRASQSISSYLNWYQQKPGKAPKLLIYAAGVGVEINVKCSGSPQCLKPCKDAGMRFGKCMNRKCHCTPKSRSGVPSRFSGSGSGTDFTLTISSLQPEDFATYYCQQGASPPYTFGQGTKVEIKR
B6: KB_A12 Shk (antibody, V domains shown)
VH: B1 VH
VL: NWYQQLPGKAPKLLIYAAGRRSCIDTIPKSRCTAFQCKHSMKYRLSFCRKTCGTCANSGVSDRFSAAKSGTSASLAINGLRSEDEADYYCAAWDDSLNGYVFGTGTKLTVLG
B7: KB_A07 MoKa-1 (antibody, V domains shown)
VH: B1 VH
VL: DIQMTQSPSSLSASVGDRVTITCRASQSISSYLNWYQQKPGKAPKLLIYAAGVINVKCSLPQQCIKPCKDAGMRFGKCMNKKCRCYSSRSGVPSRFSGSGSGTDFTLTISSLQPEDFATYYCQQGASPPYTFGQGTKVEIKR
B8: KB_A12 (scFv, V domains shown)
VH: B1 VH
VL: AVNWYQQLPGKAPKLLIYAAGRCPRILMRCKQDSDCLAGCVCGPNGFCGANSGVSDRFSAAKSGTSASLAINGLRSEDEADYYCAAWDDSLNGYVFGTGTKLTVLG
B9: KB_A07 (scFv, V domains shown)
VH: B1 VH
VL: YLNWYQQKPGKAPKLLIYAAGVCPRILMRCKQDSDCLAGCVCGPNGFCGSRSGVPSRFSGSGSGTDFTLTISSLQPEDFATYYCQQGASPPYTFGQGTKVEIKR
B10: KB_A12 Kaliotoxin (antibody, V domains shown)
VH: B1 VH
VL: QSVLTQPPSVSEAPRQRVTITCSGSSSNIGNNAVNWYQQLPGKAPKLLIYAAGRGVEINVKCSGSPQCLKPCKDAGMRFGKCMNRKCHCTPKANSGVSDRFSAAKSGTSASLAINGLRSEDEADYYCAAWDDSLNGYVFGTGTKLTVLG
B11: KB_A12 MoKa-1 (antibody, V domains shown)
VH: B1 VH
VL: QSVLTQPPSVSEAPRQRVTITCSGSSSNIGNNAVNWYQQLPGKAPKLLIYAAGRINVKCSLPQQCIKPCKDAGMRFGKCMNKKCRCYSANSGVSDRFSAAKSGTSASLAINGLRSEDEADYYCAAWDDSLNGYVFGTGTKLTVLG

The binders below were run against T1, human Nav1.7 (human, UniProt Q15858 1-1988) (assay: cell-based or functional assay).
T1 sequence (Q15858 whole entry): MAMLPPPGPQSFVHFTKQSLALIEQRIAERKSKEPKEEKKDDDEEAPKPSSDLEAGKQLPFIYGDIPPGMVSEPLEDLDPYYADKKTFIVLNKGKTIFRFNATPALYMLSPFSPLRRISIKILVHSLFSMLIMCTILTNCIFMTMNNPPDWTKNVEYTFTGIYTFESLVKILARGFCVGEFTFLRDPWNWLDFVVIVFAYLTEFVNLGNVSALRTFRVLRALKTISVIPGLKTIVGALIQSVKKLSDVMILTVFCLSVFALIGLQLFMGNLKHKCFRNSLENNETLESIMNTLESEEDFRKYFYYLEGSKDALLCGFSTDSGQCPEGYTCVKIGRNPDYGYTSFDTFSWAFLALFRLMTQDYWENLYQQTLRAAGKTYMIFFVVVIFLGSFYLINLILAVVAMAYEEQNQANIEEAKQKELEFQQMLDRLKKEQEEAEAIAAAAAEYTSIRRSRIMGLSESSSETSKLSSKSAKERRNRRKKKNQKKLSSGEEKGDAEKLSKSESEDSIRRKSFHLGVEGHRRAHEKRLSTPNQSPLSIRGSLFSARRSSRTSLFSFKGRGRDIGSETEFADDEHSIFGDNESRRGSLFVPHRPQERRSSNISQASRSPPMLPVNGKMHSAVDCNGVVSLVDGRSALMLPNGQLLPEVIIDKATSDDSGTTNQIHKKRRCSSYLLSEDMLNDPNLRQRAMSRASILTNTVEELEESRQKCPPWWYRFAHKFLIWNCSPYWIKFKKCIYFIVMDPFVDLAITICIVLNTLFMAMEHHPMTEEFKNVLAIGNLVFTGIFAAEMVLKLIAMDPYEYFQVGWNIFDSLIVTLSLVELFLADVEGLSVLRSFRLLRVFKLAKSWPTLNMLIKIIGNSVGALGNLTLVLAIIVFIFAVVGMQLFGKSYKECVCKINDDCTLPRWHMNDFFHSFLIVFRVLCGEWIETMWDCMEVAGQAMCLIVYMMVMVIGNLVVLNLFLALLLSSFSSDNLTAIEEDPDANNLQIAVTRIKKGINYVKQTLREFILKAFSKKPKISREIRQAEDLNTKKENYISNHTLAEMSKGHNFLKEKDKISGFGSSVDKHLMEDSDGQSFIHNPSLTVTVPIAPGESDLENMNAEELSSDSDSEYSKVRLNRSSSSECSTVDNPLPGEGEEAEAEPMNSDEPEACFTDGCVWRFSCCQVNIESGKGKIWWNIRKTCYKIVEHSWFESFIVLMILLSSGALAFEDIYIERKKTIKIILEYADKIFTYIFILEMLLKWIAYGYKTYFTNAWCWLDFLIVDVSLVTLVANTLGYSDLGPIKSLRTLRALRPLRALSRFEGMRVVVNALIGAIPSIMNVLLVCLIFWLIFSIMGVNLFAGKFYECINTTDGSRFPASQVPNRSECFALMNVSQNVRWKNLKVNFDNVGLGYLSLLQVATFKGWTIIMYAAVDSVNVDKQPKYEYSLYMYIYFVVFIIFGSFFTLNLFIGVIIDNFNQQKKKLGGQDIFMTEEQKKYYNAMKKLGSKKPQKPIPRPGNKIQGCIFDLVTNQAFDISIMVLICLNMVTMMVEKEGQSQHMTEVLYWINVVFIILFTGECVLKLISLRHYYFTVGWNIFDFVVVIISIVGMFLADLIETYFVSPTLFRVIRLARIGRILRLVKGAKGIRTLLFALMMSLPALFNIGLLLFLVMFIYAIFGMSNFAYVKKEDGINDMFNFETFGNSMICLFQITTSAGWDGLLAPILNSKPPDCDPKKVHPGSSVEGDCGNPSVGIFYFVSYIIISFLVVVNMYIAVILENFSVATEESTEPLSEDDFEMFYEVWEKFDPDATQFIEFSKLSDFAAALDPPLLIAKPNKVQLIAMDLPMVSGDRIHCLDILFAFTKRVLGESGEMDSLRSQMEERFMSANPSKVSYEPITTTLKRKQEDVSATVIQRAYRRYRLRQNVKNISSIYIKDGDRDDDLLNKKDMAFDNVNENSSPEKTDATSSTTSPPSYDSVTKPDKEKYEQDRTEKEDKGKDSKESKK

Binder	IC50 of inhibition of Nav1.7 currents, QPatch, CHO cells
B1	1.1 µM
B2	1.5 µM
B3	1.4 µM

What follows are binders tested against T2, human Kv 1.3 (human, UniProt P22001 1-575) (assay: cell-based or functional assay).
T2 sequence (P22001 whole entry): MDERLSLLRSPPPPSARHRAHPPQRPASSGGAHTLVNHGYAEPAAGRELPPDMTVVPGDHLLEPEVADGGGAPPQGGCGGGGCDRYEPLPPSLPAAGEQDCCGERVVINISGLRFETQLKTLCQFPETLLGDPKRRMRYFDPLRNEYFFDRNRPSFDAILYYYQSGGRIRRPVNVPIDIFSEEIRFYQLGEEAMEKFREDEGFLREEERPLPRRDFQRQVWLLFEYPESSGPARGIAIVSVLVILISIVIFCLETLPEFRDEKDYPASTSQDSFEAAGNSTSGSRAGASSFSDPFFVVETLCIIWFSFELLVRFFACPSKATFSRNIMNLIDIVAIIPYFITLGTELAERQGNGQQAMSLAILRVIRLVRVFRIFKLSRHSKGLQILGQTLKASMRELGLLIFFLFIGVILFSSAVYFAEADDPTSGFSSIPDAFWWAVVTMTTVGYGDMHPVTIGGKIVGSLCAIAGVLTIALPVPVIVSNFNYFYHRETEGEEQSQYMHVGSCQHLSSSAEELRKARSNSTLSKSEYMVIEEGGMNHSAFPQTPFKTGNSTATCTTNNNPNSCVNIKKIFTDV

Binder	IC50 of inhibition of huKv1.3 currents, QPatch whole-cell patch clamp, CHO cells
B4	40 nM
B5	900 nM
B6	20 nM

Biological target: T2, human Kv 1.3
Assay: cell-based or functional assay
Remark: another data set of the same source

Binder	IC50 of inhibition of huKv1.3 currents (extrapolated)
B7	> 10 µM
B8	> 10 µM
B9	> 10 µM
B10	> 10 µM
B11	> 10 µM

Biological target: T1, human Nav1.7
Assay: cell-based or functional assay
Remark: another data set of the same source

Binder	IC50 of inhibition of Nav1.7 currents (extrapolated; IgG isotype control)
B8	> 100 µM
